Test results as given in patent US20200017592A1 (Regeneron, published 2020).

T1: human IL-36R extracellular domain expressed with a C-terminal mouse IgG2a Fc tag (hIL-36R-mFc) (human; mouse, UniProt Q9HB29 20-337)
T1 construct: not shown: mouse IgG2a Fc, E98-K330
T1 sequence (looked up): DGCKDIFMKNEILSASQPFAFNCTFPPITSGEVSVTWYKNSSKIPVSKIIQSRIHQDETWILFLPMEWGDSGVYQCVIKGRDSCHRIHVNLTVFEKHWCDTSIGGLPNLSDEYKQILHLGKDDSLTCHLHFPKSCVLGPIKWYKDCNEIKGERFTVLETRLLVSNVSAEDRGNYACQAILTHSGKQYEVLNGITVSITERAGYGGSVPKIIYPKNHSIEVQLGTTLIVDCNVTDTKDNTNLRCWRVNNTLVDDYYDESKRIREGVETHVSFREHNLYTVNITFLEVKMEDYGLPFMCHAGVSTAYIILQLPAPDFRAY

T2: in-line fusion protein of human IL-36R extracellular domain and IL1RAcP extracellular domain expressed with … (human; mouse, UniProt Q9HB29 20-337; Q9NPH3 21-359, limits assumed)
T2 construct: not shown: mouse IgG2a Fc
T2 sequence (looked up): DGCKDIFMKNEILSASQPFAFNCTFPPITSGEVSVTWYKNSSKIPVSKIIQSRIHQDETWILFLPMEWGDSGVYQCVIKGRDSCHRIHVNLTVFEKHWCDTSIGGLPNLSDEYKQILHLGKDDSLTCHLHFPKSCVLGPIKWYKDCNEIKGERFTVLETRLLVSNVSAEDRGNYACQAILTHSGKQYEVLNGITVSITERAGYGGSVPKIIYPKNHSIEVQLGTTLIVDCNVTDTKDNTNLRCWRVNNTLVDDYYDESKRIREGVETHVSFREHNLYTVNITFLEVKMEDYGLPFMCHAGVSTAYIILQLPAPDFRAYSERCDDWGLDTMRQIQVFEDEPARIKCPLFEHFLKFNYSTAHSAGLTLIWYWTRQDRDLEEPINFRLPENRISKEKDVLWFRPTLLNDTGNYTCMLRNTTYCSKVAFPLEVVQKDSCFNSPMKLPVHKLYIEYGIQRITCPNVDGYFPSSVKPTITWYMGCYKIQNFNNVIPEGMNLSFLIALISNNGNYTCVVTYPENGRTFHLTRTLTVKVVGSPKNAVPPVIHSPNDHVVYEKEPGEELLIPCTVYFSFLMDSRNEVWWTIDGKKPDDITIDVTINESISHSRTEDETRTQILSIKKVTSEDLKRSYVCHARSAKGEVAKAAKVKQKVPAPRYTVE


Columns and labels:
[1] = target: T1, human IL-36R extracellular domain …; test: SPR Biacore 4000, mAb captured on anti-hFc, 25C
Procedure: (§1) Equilibrium dissociation constants (KD values) for IL-36R binding to purified anti-IL-36R antibodies were determined using a real-time surface plasmon resonance biosensor using a Biacore 4000 instrument. The Biacore sensor surface was first derivatized by amine coupling with a monoclonal mouse anti-human Fc antibody (GE, # BR-1008-39) to capture anti-IL-36R monoclonal antibodies. All binding studies were performed in 0.01 M Hepes pH 7.4, 0.15 M NaCl, 3 mM EDTA, and 0.05% v/v Surfactant Tween-20 (HBS-ET running buffer) at 25° C. and 37° C. Different concentrations of IL-36R reagents, human IL-36R extracellular domain expressed with a C-terminal myc-myc-hexahistidine tag (hIL-36R-MMH), Macaca fascicularis IL-36R extracellular domain expressed with a C-terminal myc-myc-hexahistidine tag (mfIL-36R-MMH: mROR1 signal sequence (M1-A29). Macaca fascicularis IL36R_ecto domain (D20-A336).mycmycHis6), human IL-36R extracellular domain expressed with a C-terminal mouse IgG2a Fc tag (hIL-36R-mFc: mROR1 signal sequence (M1-A29)-human IL36R (D20-Y337)-mouse IgG2aFc (E98-K330)) or an in-line fusion protein of human IL-36R extracellular domain and IL1RAcP extracellular domain expressed with mouse IgG2a Fc tag (hIL-36R-Trap-mFc: mROR1 signal sequence (M1-A29)-human IL36R ecto domain (D20-Y337)-human IL1RacP ecto domain(S21-E359)-mouse IgG2aFc) in HBS-ET running buffer (ranging from 100 nM to 3.7 nM, 3-fold dilutions) were injected over the anti-IL-36R antibody captured surface for 4 minutes at a flow rate of 30 μL/minute and their dissociation in HBS-ET running buffer was monitored for 10 minutes. Kinetic association rate constant (kₐ) and dissociation rate constant (kd) were determined by fitting the real-time sensorgrams to a 1:1 binding model using Scrubber 2.0c curve fitting software. Binding dissociation equilibrium constants (KD) and dissociative half-lives (t_{1/2}) were calculated from the kinetic rate constants as: […]

[2] = target: T2, in-line fusion protein of human IL-36R …; test: SPR Biacore 4000, mAb captured on anti-hFc, 25C
Procedure: as §1

[3] = target: T1, human IL-36R extracellular domain …; test: SPR Biacore 4000, mAb captured on anti-hFc, 37C
Procedure: as §1

[4] = target: T2, in-line fusion protein of human IL-36R …; test: SPR Biacore 4000, mAb captured on anti-hFc, 37C
Procedure: as §1

[5] = target: T3, human IL-36R extracellular domain expressed with a C-terminal myc-myc-hexahistidine tag (hIL-36R-MMH) (human, UniProt Q9HB29 20-337); test: SPR Biacore T200, mAb captured on anti-hFc, 25C, PBS-T pH 6.0 running buffer
T3 construct: also called Human IL-36R-MMH; REGN2105
Procedure: (§2) Additional binding experiments were performed to determine the effect of pH on the rate of dissociation of IL-36R bound to purified anti-IL-36R antibodies, which was determined using a real-time surface plasmon resonance biosensor using a Biacore T200 instrument. The Biacore sensor surface was first derivatized by amine coupling with a monoclonal mouse anti-human Fc antibody (GE, # BR-1008-39) to capture anti-IL-36R antibodies. […] Different concentrations of hIL-36R-MMH and mfIL-36R-MMH prepared in PBS-T, pH7.4 buffer (ranging from 100 nM to 11.11 nM, 3-fold dilutions) were injected over the anti-IL-36R antibody captured surface for 4 minutes at a flow rate of 50 μL/minute and their dissociation in two running buffers, PBS-T, pH7.4 and PBS-T, pH 6.0, was monitored for 10 minutes. All of these binding kinetics experiments were performed at 25° C. and 37° C. Kinetic dissociation constant (kd) were determined by fitting the real-time sensorgrams to a 1:1 binding model using Scrubber 2.0c curve fitting software. Binding dissociative half-lives (t_{1/2}) were calculated from kd as: […]

[6] = target: T3, human IL-36R extracellular domain …; test: SPR Biacore T200, mAb captured on anti-hFc, 25C, PBS-T pH 7.4 running buffer
Procedure: as §2

[7] = target: T3, human IL-36R extracellular domain …; test: SPR Biacore T200, mAb captured on anti-hFc, 37C, PBS-T pH 6.0 running buffer
Procedure: as §2

[8] = target: T3, human IL-36R extracellular domain …; test: SPR Biacore T200, mAb captured on anti-hFc, 37C, PBS-T pH 7.4 running buffer
Procedure: as §2

T3 sequence (Q9HB29 other isoform, or with tags, fused parts or gaps limits assumed): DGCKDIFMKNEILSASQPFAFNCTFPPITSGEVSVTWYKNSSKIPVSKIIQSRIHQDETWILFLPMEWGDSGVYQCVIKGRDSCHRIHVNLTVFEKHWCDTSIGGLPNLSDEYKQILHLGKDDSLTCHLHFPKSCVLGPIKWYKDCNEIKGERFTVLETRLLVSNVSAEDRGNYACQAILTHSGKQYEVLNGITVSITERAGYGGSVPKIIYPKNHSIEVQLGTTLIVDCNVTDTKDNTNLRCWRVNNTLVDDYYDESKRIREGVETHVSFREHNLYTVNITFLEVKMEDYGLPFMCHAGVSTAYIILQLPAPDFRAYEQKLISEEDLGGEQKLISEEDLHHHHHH

Row | 100 nM hIL-36R-mFc Bound (RU) [1] [RU] | 100 nM hIL-36R-Trap-mFc Bound (RU) [2] [RU] | Kd [2] [nM] | koff [2] [s⁻¹] | kon [2] [M⁻¹ s⁻¹] | t1/2 [2] [min] | 100 nM hIL-36R-mFc Bound (RU) [3] [RU] | Kd [3] [nM] | koff [3] [s⁻¹] | kon [3] [M⁻¹ s⁻¹] | t1/2 [3] [min] | 100 nM hIL-36R-Trap-mFc Bound (RU) [4] [RU] | Kd [4] [nM] | koff [4] [s⁻¹] | kon [4] [M⁻¹ s⁻¹] | t1/2 [4] [min] | 100 nM Human IL-36R-MMH Bound (RU) [5] [RU] | koff [5] [s⁻¹] | t1/2 [5] [min] | 100 nM Human IL-36R-MMH Bound (RU) [6] [RU] | Binder | other results
1 | 142 | 173 | 0.404 | 8.07e-05 | 200000 | 143 | 211 | 0.205 | 0.000112 | 543000 | 104 | 257 | 0.264 | 0.000123 | 467000 | 94 | 99 | 0.000842 | 14 | 111 | H4H14709P (antibody, human IgG4 S228P, kappa, V domains shown, Fully human anti-IL-36R antibody) VH: EVQLVESGGGLVQPGGSLRLSCAASGFTFSDYAMSWVRQAPGKGLEWVSGISGNGGDTYYGDFVKGRFTISRDNSKNTLYLQMNSLRGEDTAAYFCVIDLDYWGQGTLVTVSS VL: DIQMTQSPSTLSASEGDRVTITCRASQSISSWLAWYQQKPGKAPRLLIYKASILGDGVPSRFSGSGSGTEFTLTISSLQPDDFATYYCHQYNSYLWTFGQGTKVEIKR | Kd [1]: 0.335 nM; koff [1]: 8.62e-05 s⁻¹; kon [1]: 257000 M⁻¹ s⁻¹; t1/2 [1]: 134 min; koff [6]: 0.00042 s⁻¹; t1/2 [6]: 28 min; 100 nM hIL-36R-MMH Bound (RU) [7]: 146 RU; koff [7]: 0.00172 s⁻¹; t1/2 [7]: 7 min; 100 nM hIL-36R-MMH Bound (RU) [8]: 159 RU; koff [8]: 0.000704 s⁻¹; t1/2 [8]: 16 min
2 | 7 | 63 | 14 | 0.000565 | 40300 | 20 | 11 | 28.7 | 0.000465 | 16200 | 25 | 89 | 40.9 | 0.00198 | 48500 | 6 | 96 | 0.000887 | 13 | 103 | H4H14728P (antibody, human IgG4 S228P, kappa, V domains shown, Fully human anti-IL-36R antibody) VH: QVQLQESGPGLVKPSQTLSLTCTVSGGSISSADYYWSWIRQHPGKGLEWIGSIYYTGSTYYNPSLKSRLTISIDTSENQFSLKLTSLTAADTAVYYCASEEANWGSHFDSWGQGTLVTVSS VL: DIQMTQSPSSLSASVGDRVTITCRASQSIDNFLNWYQQKPGKAPKLLIYAASSLQSGVPSRFSGSGSGTDFTLTISSLQPEDFASYYCQHSHSAHPITFGQGTRLEIKR | koff [6]: 0.000898 s⁻¹; t1/2 [6]: 13 min; 100 nM hIL-36R-MMH Bound (RU) [7]: 114 RU; koff [7]: 0.00306 s⁻¹; t1/2 [7]: 4 min; 100 nM hIL-36R-MMH Bound (RU) [8]: 121 RU; koff [8]: 0.00296 s⁻¹; t1/2 [8]: 4 min
3 | 146 | 172 | 0.357 | 0.000129 | 361000 | 90 | 203 | 0.435 | 0.0002 | 460000 | 58 | 239 | 0.656 | 0.000253 | 385000 | 46 | 79 | 0.00163 | 7 | 87 | H4H14708P2 (antibody, human IgG4 S228P, kappa, V domains shown, Fully human anti-IL-36R antibody) VH: EVQLVESGGDLVQPGRSLRLSCAASGFTFDDYAMHWVRQAPGKGLEWVSVISWNSDVIAYSDSVKGRFTISRDNAKNSLYLQMNSLRTEDTALYYCTKGHKWSFFDYWGQGTLVTVSS VL: EIVLTQSPATLSLSPGERATLSCRASQSISSYLAWYQQKPGQAPRLLIFNVANRATDIPARFSGSGSGTDFTLTISSLEPEDFAVYYCQQRSNWPLTFGGGTKVEIKR | Kd [1]: 0.317 nM; koff [1]: 0.000128 s⁻¹; kon [1]: 403000 M⁻¹ s⁻¹; t1/2 [1]: 90 min; koff [6]: 0.000796 s⁻¹; t1/2 [6]: 15 min; 100 nM hIL-36R-MMH Bound (RU) [7]: 95 RU; koff [7]: 0.00337 s⁻¹; t1/2 [7]: 3 min; 100 nM hIL-36R-MMH Bound (RU) [8]: 105 RU; koff [8]: 0.00177 s⁻¹; t1/2 [8]: 7 min
